The labels stand for the following.
B1: S2(PtxB1)S4his recombinant dimer of pertussis toxin subunits S2 (PtxB1 form) and S4 (complex)
chain 1: STPGIVIPPQEQITQHGGPYGRCANKTRALTVAELRGSGDLQEYLRHVTRGWSIFALYDGTYLGGEYGGVIKDGTPGGAFDLKTTFCIMTTRNTGQPATDHYYSNVTATRLLSSTNSRLCAVFVRSGQPVIGACTSPYDGKYWSMYSRLRKMLYLIYVAGISVRVHVSKEEQYYDYEDATFETYALTGISICNPGSSLC
chain 2: DVPYVLVKTNMVVTSVAMKPYEVTPTRMLVCGIAAKLGAAASSPDAHVPFCFGKDLKRPGSSPMEVMLRAVFMQQRPLRMFLGPKQLTFEGKPALELIRMVECSGKQDCP
B2: S3S4his recombinant dimer of pertussis toxin subunits S3 and S4 (complex)
chain 1: VAPGIVIPPKALFTQQGGAYGRCPNGTRALTVAELRGNAELQTYLRQITPGWSIYGLYDGTYLGQAYGGIIKDAPPGAGFIYRETFCITTIYKTGQPAADHYYSKVTATRLLASTNSRLCAVFVRDGQSVIGACASPYEGRYRDMYDALRRLLYMIYMSGLAVRVHVSKEEQYYDYEDATFQTYALTGISLCNPAASIC
chain 2: B1 chain 2
B3: S2(PtxB2)S4his recombinant dimer of pertussis toxin subunits S2 (PtxB2 form) and S4 (complex)
chain 1: B1 chain 1 with G18S
chain 2: B1 chain 2

Where a chain is given by its changes, count along the chain named.

The first assay concerns the target T1, Fetuin (bovine serum glycoprotein), biotinylated (bovine, UniProt P12763 19-359).
T1 construct: source: bought: Sigma-Aldrich
T1 sequence: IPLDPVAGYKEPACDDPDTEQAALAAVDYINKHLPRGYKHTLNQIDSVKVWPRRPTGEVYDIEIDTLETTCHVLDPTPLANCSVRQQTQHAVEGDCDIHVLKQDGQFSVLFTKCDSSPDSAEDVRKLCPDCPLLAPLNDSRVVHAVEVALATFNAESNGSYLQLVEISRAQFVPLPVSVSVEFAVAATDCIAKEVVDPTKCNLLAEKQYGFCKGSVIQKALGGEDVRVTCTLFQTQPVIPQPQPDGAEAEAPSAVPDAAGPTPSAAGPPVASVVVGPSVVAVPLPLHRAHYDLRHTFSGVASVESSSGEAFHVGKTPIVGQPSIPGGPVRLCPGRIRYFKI
The assay can be described thus: BLI. The conditions noted are these: both partners purified.
As to B1, the binding result is listed as “binds”.

Take B2: the binding result is given as “binds”.

For the molecule B3, the binding result is “binds”.

A further assay has as its target T2, Asialofetuin (fetuin lacking sialic acid), biotinylated (bovine, UniProt P12763 19-359).
T2 construct: source: bought: Sigma-Aldrich
T2 sequence: T1 sequence
The assay can be described thus: BLI. The conditions noted are these: both partners purified.
In the case of B1, the binding result is “binds”.

As to B2, the binding result is given as “binds”.

In the case of B3, the binding result is reported as “binds”.
